Assay [1] deals with human Fc gamma receptor 1A (human) (UniProt P12314). Nature of the assay: SPR (Biacore T200), antibody amine-coupled on CM5 (~950 RU), FcγR1A as analyte. A general note: Surface plasmon resonance follows binding to a sensor surface in real time, without labels.
Assay [2] has as its target CD3-Fc. As to the kind of experiment: SPR (Biacore T200, 25 C), CD3-Fc captured on anti-hFc CM5 chip, antibody as analyte, 1:1 model.

Sequence of UniProt P12314 (P12314 16-288 limits assumed): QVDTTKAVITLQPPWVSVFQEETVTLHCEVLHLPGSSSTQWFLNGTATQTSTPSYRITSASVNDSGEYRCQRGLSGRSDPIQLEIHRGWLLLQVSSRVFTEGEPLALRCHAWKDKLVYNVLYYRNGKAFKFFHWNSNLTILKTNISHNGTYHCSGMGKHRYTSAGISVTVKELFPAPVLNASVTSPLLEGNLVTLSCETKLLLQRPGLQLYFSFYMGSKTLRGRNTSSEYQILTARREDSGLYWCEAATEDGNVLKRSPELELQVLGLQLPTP

Consider “Anti-CD3 DANAPA-IgG1 (D265A/N297A/P329A) (antibody)”, for which, in assay [1], the Maximum response at 100 nM hFcgammaRIA (RU) was 11 RU.
In the case of “Anti-CD3 DAPASK-IgG1 (D265A/P329A/S267K) (antibody)”, in assay [1], the Maximum response at 100 nM hFcgammaRIA (RU) stood at 13 RU.
“Anti-CD3 GADAPA-IgG1 (G237A/D265A/P329A) (antibody)” returned a Maximum response at 100 nM hFcgammaRIA (RU) in assay [1] of 16 RU.
In assay [1], “Anti-CD3 GADAPASK-IgG1 (G237A/D265A/P329A/S267K) (antibody)” yielded a Maximum response at 100 nM hFcgammaRIA (RU) of 10 RU.
Still for that read-out and setting: for “Anti-CD3 LALAGA-IgG1 (L234A/L235A/G237A) (antibody)” the value was 15 RU; for “Anti-CD3 LALAPG-IgG1 (L234A/L235A/P329G) (antibody)”, 18 RU.
Take “Anti-CD3 LALASKPA-IgG1 (L234A/L235A/S267K/P329A) (antibody)”: in assay [1], the Maximum response at 100 nM hFcgammaRIA (RU) worked out at 9 RU.

B1: anti-CD3 antibody CD3hi (mAb) (antibody, V domains shown)
VH: EVQLVESGGGLVQPGGSLKLSCAASGFTFNTYAMNWVRQASGKGLEWVGRIRSKYNNYATYYADSVKDRFTISRDDSKSTLYLQMNSLKTEDTAVYYCVRHGNFGNSYVSWFAYWGQGTLVTVSS
VL: QAVVTQEPSLTVSPGGTVTLTCRSSTGAVTTSNYANWVQQKPGQAPRGLIGGTNKRAPWTPARFSGSLLGDKAALTLSGAQPEDEAEYFCALWYSNLWVFGGGTKLTVL
What is called Kd is the free concentration of one partner at which half of the binding sites on the other are occupied at equilibrium, for simple one-to-one binding. High values mean lower affinity, low ones higher affinity. Take B1: in assay [2], the equilibrium dissociation constant (Kd) is 16 nM. This lies in the double-digit nanomolar range.

B2: anti-CD3 antibody CD3lo (mAb) (antibody, V domains shown)
VH: EVQLVESGGGLVQPGGSLKLSCAASGFTFNTYAMNWVRQASGKGLEWVGRIRSKYNNYATYYADSVKDRFTISRDDSKSTAYLQMNSLKTEDTAVYYCVRHGNFGNSYVSWFAYWGQGTLVTVSS
VL: QAVVTQEPSLTVSPGGTVTLTCRSSTGAVTTSNYANWVQQKPGQAPRGLIGGTNKRAPWTPARFSGSLLGDKAALTLSGAQPEDEAEYFCALWYSNLWVFGGGTKLTVL
Turning to B2, the Kd in assay [2] is 48 nM.

B3: anti-CD3 antibody CD3med (mAb) (antibody, V domains shown)
VH: EVQLVESGGGLVQPGGSLKLSCAASGFTFNTYAMNWVRQASGKGLEWVGRIRSKYNNYATYYADSVKDRFTISRDDSKNTAYLQMNSLKTEDTAVYYCVRHGNFGNSYVSWFAHWGQGTLVTVSS
VL: QAVVTQEPSLTVSPGGTVTLTCGSSTGAVTSSNYANWVQQKPGQAPRGLIGGTNKRAPWTPARFSGSLLGGKAALTLSGAQPEDEAEYYCALWYSNLWVFGGGTKLTVL
Regarding B3, the Kd in assay [2] came out at 30 nM.
